Measurements from the supplement of paper PMC9876800.

System: peptide library, one residue held at a place counted from the S/T acceptor
Assay: relative phosphorylation of the sub-library (ratio to the mean residue at this position); higher = residue favoured
Method in brief: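 Purified recombinant kinases were reacted in 384-well plates with biotinylated degenerate peptide sub-libraries, each having one residue fixed at one position around a central Ser/Thr. The reaction mix contained 50 μM peptide plus 50 μM ATP spiked with γ-32P-ATP and ran for 90 min under kinase-specific conditions. Relative sub-library phosphorylation, taken from densitometry of phosphorimaged streptavidin membrane spots, is a ratio to the mean residue at that position.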

SRPK3, construct: Full length, human (from UniProt Q9UPE1)
relative phosphorylation
Details	at +1	at +2	at +3	at +4	at -1	at -2	at -3	at -4	at -5
A fixed	0.905	1.14	0.591	0.865	1.08	1.46	0.594	0.904	0.946
D fixed	0.388	1.38	0.427	0.767	0.598	3.18	0.543	0.699	0.69
E fixed	0.501	1.15	0.377	0.67	0.731	1.53	0.451	0.818	0.718
F fixed	0.56	0.736	0.505	0.848	0.727	0.782	0.389	0.825	1.1
G fixed	0.767	0.962	0.719	1.03	1.05	0.997	0.429	0.929	1.05
H fixed	0.649	1.54	0.577	0.999	1.3	0.804	0.444	0.944	1.09
I fixed	0.877	0.777	0.413	0.739	0.696	0.471	0.351	0.865	0.92
K fixed	0.963	1.08	1.06	1.33	1.34	0.908	0.724	1.36	1.33
L fixed	1.09	0.601	0.41	0.846	0.924	0.551	0.346	0.791	0.785
M fixed	1.01	0.796	0.467	0.899	1.02	0.666	0.403	0.859	0.906
N fixed	0.674	1.31	0.592	1.04	0.833	0.938	0.417	0.83	0.861
P fixed	3.97	0.922	1.39	1.02	1.58	0.762	0.387	0.99	0.74
Q fixed	0.926	0.905	0.635	1.07	1.07	0.729	0.568	0.952	0.777
R fixed	1.48	1.35	7.34	2.07	1.76	1.31	9.8	2.63	2.11
V fixed	1.13	0.909	0.456	0.745	0.898	0.547	0.34	0.852	0.897
W fixed	0.574	0.701	0.541	1.18	0.579	0.638	0.39	0.881	0.977
Y fixed	0.537	0.734	0.496	0.876	0.818	0.723	0.429	0.867	1.1
pThr fixed	0.601	1.02	0.572	0.874	0.69	1.01	0.644	1.13	0.863
pTyr fixed	0.746	0.876	0.702	0.924	1.38	1.79	1.29	2.21	1.15
